The values that follow come from IntAct's records for PubMed 31515488.

B1: Protein LDOC1 (Homo sapiens), O95751 (parent)
chain: MVDELVLLLHALLMRHRALSIENSQLMEQLRLLVCERASLLRQVRPPSCPVPFPETFNGESSRLPEFIVQTASYMLVNENRFCNDAMKVAFLISLLTGEAEEWVVPYIEMDSPILGDYRAFLDEMKQCFGWDDDEDDDDEEEEDDY
partner: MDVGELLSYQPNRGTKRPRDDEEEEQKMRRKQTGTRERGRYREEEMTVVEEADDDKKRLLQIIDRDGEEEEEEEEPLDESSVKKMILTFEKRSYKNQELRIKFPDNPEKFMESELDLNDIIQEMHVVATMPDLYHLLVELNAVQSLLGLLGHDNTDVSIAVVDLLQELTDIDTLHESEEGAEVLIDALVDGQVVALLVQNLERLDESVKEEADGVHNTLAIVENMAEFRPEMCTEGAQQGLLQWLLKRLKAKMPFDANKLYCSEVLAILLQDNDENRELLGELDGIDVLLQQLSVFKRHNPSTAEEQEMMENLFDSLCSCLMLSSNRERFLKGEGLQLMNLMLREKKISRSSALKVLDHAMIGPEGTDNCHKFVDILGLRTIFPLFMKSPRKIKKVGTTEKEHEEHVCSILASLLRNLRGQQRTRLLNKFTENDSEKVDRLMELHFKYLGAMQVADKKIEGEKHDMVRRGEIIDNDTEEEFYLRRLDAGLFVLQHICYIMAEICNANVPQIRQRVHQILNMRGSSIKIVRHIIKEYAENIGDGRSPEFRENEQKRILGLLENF
B2: PDZ and LIM domain protein 5 (Homo sapiens), Q96HC4 (parent)
chain: MSNYSVSLVGPAPWGFRLQGGKDFNMPLTISSLKDGGKAAQANVRIGDVVLSIDGINAQGMTHLEAQNKIKGCTGSLNMTLQRASAAPKPEPVPVQKGEPKEVVKPVPITSPAVSKVTSTNNMAYNKAPRPFGSVSSPKVTSIPSPSSAFTPAHATTSSHASPSPVAAVTPPLFAASGLHANANLSADQSPSALSAGKTAVNVPRQPTVTSVCSETSQELAEGQRRGSQGDSKQQNGPPRKHIVERYTEFYHVPTHSDASKKRLIEDTEDWRPRTGTTQSRSFRILAQITGTEHLKESEADNTKKANNSQEPSPQLASSVASTRSMPESLDSPTSGRPGVTSLTAAAAFKPVGSTGVIKSPSWQRPNQGVPSTGRISNSATYSGSVAPANSALGQTQPSDQDTLVQRAEHIPAGKRTPMCAHCNQVIRGPFLVALGKSWHPEEFNCAHCKNTMAYIGFVEEKGALYCELCYEKFFAPECGRCQRKILGEVISALKQTWHVSCFVCVACGKPIRNNVFHLEDGEPYCETDYYALFGTICHGCEFPIEAGDMFLEALGYTWHDTCFVCSVCCESLEGQTFFSKKDKPLCKKHAHSVNF
B3: Low-density lipoprotein receptor class A domain-containing protein 1 (Homo sapiens), Q5T700 (parent)
chain: MNKVFPQGENGYTAAESKAHPGGEAGGGHLCCSRRGACLSASLLLLLATVAALIALVTILGLPSCTPGAQACITLTNRTGFLCHDQRSCIPASGVCDGVRTCTHGEDEDESLCRDVPQSLPHFLVAHCGDPASWIYSDQKCDGTNNCGDCSDELSPVTVCPPCGPGWWRCPSTFFKYCDCIPRHLCRDHVQHCSDWSDEYACPGP
partner: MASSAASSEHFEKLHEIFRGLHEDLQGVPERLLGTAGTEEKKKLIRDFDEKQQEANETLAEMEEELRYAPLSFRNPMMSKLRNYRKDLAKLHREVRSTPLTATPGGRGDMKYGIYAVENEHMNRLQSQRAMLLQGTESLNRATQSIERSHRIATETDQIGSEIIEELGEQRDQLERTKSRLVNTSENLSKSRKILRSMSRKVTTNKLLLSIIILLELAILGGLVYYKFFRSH
B4: Transmembrane protein 140 (Homo sapiens), Q9NV12 (parent)
chain: MAGPRPRWRDQLLFMSIIVLVIVVICLMFYALLWEAGNLTDLPNLRIGFYNFCLWNEDTSTLQCHQFPELEALGVPRVGLGLARLGVYGSLVLTLFAPQPLLLAQCNSDERAWRLAVGFLAVSSVLLAGGLGLFLSYVWKWVRLSLPGPGFLALGSAQALLILLLIAMAVFPLRAERAESKLESC
partner: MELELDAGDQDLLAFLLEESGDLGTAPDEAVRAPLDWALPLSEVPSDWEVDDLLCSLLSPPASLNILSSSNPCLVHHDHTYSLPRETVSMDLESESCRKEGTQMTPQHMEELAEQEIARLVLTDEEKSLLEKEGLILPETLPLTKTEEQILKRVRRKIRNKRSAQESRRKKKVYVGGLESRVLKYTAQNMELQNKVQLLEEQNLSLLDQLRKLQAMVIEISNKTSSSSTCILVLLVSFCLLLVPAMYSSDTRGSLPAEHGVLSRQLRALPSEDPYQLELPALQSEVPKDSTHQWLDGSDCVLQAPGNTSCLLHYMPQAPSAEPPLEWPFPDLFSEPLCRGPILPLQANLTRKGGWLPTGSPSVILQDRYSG
B5: Protein BTG1 (Homo sapiens), P62324 (parent)
chain: MHPFYTRAATMIGEIAAAVSFISKFLRTKGLTSERQLQTFSQSLQELLAEHYKHHWFPEKPCKGSGYRCIRINHKMDPLIGQAAQRIGLSSQELFRLLPSELTLWVDPYEVSYRIGEDGSICVLYEASPAGGSTQNSTNVQMVDSRISCKEELLLGRTSPSKNYNMMTVSG
B6: Protein DBF4 homolog B (Homo sapiens), Q8NFT6 (parent)
chain: MSEPGKGDDCLELESSMAESRLRAPDLGVSRCLGKCQKNSPGARKHPFSGKSFYLDLPAGKNLQFLTGAIQQLGGVIEGFLSKEVSYIVSSRREVKAESSGKSHRGCPSPSPSEVRVETSAMVDPKGSHPRPSRKPVDSVPLSRGKELLQKAIRNQGSISGGGSGGSSSLLTNARSWGVRILHVDEMMMHVQQLSLASLCVKKQQPKKPEGTCPAAESRTRKVARLKAPFLKIEDESRKFRPFHHQFKSFPEISFLGPKDASPFEAPTTLGSMHHTRESKDGEPSPRSAAHTMPRRKKGYCECCQEAFEELHVHLQSAQHRSFALEAHLYAEVDRIIAQLSHSFADIPFQAGLPRWSGSPASDCDPLCPETLHPHQPSHPRAASPRIRKEDSCQASVTQGRAAGQQRWTESLDGVMGPPASHTCVSATTLLPALPKGSREQGCLCPCPASFTQSHLVTSLALLPGEWSPAEDMPLHPSQENSFAPADIPVKGPLLFPEARPWLMSARCWVRPFPFVTWGCLIPHDTTPLHEEVSPCPCLRLGYLYLLLTQSLWCRVRVPSLSTAGPIPRTSHPCTLAFPSYLNDHDLGHLCQAKPQGWNTPQPFLHCGFLAVDSG
partner: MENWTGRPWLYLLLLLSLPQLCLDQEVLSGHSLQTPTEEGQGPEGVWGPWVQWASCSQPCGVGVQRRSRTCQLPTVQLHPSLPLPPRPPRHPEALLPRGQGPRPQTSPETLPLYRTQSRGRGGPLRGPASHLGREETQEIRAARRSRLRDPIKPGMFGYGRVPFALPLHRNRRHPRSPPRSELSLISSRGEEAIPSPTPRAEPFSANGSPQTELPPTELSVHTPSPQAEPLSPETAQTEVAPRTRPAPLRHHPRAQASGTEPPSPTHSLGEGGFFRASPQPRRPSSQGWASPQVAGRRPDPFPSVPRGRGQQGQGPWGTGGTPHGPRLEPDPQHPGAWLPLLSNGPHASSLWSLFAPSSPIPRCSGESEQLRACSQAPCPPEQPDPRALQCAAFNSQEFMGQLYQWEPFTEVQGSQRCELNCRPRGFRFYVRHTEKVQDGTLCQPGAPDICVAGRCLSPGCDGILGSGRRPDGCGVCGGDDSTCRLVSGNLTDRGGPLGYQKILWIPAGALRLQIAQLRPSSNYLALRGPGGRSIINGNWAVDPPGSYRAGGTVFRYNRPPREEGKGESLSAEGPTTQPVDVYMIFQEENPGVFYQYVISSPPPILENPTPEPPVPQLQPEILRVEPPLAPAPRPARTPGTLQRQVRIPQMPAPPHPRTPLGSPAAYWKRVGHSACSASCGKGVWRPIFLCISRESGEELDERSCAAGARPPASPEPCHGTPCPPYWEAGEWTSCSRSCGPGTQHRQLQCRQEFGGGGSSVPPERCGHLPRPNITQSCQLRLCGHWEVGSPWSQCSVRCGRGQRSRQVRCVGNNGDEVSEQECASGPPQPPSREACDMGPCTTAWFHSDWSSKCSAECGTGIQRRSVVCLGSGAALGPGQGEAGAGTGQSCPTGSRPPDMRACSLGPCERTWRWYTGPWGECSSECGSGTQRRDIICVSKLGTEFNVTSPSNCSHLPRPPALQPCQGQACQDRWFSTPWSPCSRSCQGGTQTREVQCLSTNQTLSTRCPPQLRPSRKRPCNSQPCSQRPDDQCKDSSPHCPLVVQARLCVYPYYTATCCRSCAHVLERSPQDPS

One assay covers variants of B1. The settings on record: with ctbl1_human CTNNBL1, Q8WYA6.
Take L12H: the “effect of a mutation on the interaction” value is listed as “disrupting interaction strength”.

Variants of B2 are the subject of another assay. The settings on record: with cc136_human CCDC136, Q96JN2.
Sequence of cc136_human CCDC136, Q96JN2 (Q96JN2 whole entry): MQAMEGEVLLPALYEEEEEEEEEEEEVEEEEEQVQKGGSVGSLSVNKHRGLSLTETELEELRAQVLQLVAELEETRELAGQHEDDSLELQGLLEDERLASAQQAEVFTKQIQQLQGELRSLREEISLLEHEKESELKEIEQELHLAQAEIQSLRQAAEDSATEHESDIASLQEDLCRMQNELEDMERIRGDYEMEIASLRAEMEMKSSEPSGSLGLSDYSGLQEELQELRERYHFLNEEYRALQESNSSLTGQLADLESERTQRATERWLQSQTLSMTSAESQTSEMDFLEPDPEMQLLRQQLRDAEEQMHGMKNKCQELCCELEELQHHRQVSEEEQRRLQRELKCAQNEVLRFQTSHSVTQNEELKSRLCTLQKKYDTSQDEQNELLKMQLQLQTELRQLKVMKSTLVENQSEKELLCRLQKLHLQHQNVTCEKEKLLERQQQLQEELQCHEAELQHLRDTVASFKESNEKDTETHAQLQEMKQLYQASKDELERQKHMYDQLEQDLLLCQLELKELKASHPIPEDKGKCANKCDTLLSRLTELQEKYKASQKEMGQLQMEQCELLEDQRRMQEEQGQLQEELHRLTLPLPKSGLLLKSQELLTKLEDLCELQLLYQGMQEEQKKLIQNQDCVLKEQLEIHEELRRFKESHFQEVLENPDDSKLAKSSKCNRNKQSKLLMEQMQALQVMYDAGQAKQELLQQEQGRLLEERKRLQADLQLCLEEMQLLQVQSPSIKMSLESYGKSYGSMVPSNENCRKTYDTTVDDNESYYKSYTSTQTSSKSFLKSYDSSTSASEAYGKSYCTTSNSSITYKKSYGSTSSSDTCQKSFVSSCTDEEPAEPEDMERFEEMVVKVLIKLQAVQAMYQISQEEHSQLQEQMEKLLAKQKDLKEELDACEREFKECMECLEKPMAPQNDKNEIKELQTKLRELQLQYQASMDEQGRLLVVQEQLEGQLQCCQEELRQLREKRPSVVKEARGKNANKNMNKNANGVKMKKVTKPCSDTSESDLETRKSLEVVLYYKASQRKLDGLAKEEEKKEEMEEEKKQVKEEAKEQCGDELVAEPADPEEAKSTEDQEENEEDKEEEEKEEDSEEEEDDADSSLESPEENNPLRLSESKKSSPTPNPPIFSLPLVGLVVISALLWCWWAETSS
For the variant MSNYSVSLVGPAPWGFRLQGGKDFNMPLTISSLKDGGKAAQANVRIGDVVLSIDGINAQGMTHLEAQNKIKGCTGSLNMTLQRASAAPKPEPVPVQKGEPKEVVKPVPITSPAVSKVTSTNNMAYNKAPRPFGSVSSPKVTSIPSPSSAFTPAHATTSSHASPSPVAAVTPPLFAASGLHANANLSADQSPSALSAGKTAVNVPRQPTVTSVCSETSQELAEGQRRGSQGDSKQQNGPPRKHIVERYTEFYHVPTHSDASKKRLIEDTEDWRPRTGTTQSRSFRILAQITGTEHLKESEADNTKKANNSQEPSPQLASSVASTRSMPESLDSPTSGRPGVTSLTAAAAFKPVGSTGVIKSPSWQRPNQGVPSTGRISNSATYSGSVASANSALGQTQPSDQDTLVQRAEHIPAGKRTPMCAHCNQVIRGPFLVALGKSWHPEEFNCAHCKNTMAYIGFVEEKGALYCELCYEKFFAPECGRCQRKILGEVISALKQTWHVSCFVCVACGKPIRNNVFHLEDGEPYCETDYYALFGTICHGCEFPIEAGDMFLEALGYTWHDTCFVCSVCCESLEGQTFFSKKDKPLCKKHAHSVNF [P388S], the “effect of a mutation on the interaction” value is recorded as “with no effect”.

Variants of B2 are the subject of another assay. As to conditions: with coil_human COIL.
With MSNYSVSLVGPAPWGFRLQGGKDFNMPLTISSLKDGGKAAQANVRIGDVVLSIDGINAQGMTHLEAQNKIKGCTGSLNMTLQRASAAPKPEPVPVQKGEPKEVVKPVPITSPAVSKVTSTNNMAYNKAPRPFGSVSSPKVTSIPSPSSAFTPAHATTSSHASPSPVAAVTPPLFAASGLHANANLSADQSPSALSAGKTAVNVPRQPTVTSVCSETSQELAEGQRRGSQGDSKQQNGPPRKHIVERYTEFYHVPTHSDASKKRLIEDTEDWRPRTGTTQSRSFRILAQITGTEHLKESEADNTKKANNSQEPSPQLASSVASTRSMPESLDSPTSGRPGVTSLTAAAAFKPVGSTGVIKSPSWQRPNQGVPSTGRISNSATYSGSVASANSALGQTQPSDQDTLVQRAEHIPAGKRTPMCAHCNQVIRGPFLVALGKSWHPEEFNCAHCKNTMAYIGFVEEKGALYCELCYEKFFAPECGRCQRKILGEVISALKQTWHVSCFVCVACGKPIRNNVFHLEDGEPYCETDYYALFGTICHGCEFPIEAGDMFLEALGYTWHDTCFVCSVCCESLEGQTFFSKKDKPLCKKHAHSVNF [P388S], the “effect of a mutation on the interaction” value was “with no effect”.

Another assay covers variants of B3. The settings on record: with vti1b_human VTI1B.
Consider MNKVFPQGENGYTAAESKAHPGGEAGGGHLCCSRRGACLSASLLLLLATVAALIALVTILGLPSCTPGAQACITLTNRTGFLCHDQRSCIPASGVCDGVRTCTHGEDKDESLCRDVPQSLPHFLVAHCGDPASWIYSDQKCDGTNNCGDCSDELSPVTVCPPCGPGWWRCPSTFFKYCDCIPRHLCRDHVQHCSDWSDEYACPGP [E108K], for which the “effect of a mutation on the interaction” value is “with no effect”.

In a further assay the parent is B4. The settings on record: with creb3_human CREB3, O43889.
Take A112E: the “effect of a mutation on the interaction” value is “with no effect”.

In the next assay the parent is B5. The settings on record: with cnot8_human CNOT8, Q9UFF9.
Sequence of cnot8_human CNOT8, Q9UFF9 (Q9UFF9 whole entry): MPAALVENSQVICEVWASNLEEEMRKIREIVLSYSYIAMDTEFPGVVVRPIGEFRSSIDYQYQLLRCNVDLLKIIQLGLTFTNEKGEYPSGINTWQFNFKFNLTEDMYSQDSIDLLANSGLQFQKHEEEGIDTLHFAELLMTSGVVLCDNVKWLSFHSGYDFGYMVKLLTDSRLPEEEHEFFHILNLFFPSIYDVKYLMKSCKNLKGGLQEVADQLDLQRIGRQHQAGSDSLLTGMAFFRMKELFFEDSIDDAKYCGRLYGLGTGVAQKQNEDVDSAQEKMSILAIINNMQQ
Regarding MHPFYTRAATMIGEIAAAVSFISKFLRTKGLTSERQLQTFSQSLQELLAEHYKHHWFPEKPCKGSGYRCIRINHKMDPLIGQAAQRIGLSSQELFRLLPSELTLWVDPYEVSYRIGEDGSICVLYEASPAGGSTQNSTSVQMVDSRISCKEELLLGRTSPSKNYNMMTVSG [N139S], the “effect of a mutation on the interaction” value was “with no effect”.

The next assay covers variants of B6. As to conditions: with atl4_human ADAMTSL4, Q6UY14.
For the variant L199S, the “effect of a mutation on the interaction” value is on record as “with no effect”.
